The target of assay [1] is T1, FHHDbf2-H6Mob1TM9 (Saccharomyces cerevisiae, UniProt P22204+P40484).
T1 construct: made in house; host or cells: Hi5 insect cells (baculovirus)
T1 sequence (P22204 1-572): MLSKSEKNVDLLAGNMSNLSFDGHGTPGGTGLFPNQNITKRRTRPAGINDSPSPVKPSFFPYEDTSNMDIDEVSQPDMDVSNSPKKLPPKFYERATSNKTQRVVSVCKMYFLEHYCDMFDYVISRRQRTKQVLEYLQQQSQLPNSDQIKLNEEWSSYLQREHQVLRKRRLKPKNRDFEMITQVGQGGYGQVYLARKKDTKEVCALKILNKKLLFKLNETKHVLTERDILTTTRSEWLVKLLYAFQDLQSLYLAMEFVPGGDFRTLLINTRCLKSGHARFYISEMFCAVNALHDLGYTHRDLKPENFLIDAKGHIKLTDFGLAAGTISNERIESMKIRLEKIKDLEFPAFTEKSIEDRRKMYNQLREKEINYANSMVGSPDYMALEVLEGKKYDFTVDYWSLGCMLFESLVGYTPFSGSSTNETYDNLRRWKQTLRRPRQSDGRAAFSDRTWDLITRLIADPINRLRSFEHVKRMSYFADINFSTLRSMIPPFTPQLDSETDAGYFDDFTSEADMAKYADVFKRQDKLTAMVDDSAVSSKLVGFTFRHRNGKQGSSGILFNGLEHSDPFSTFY
T1 sequence (P40484 1-314 partner): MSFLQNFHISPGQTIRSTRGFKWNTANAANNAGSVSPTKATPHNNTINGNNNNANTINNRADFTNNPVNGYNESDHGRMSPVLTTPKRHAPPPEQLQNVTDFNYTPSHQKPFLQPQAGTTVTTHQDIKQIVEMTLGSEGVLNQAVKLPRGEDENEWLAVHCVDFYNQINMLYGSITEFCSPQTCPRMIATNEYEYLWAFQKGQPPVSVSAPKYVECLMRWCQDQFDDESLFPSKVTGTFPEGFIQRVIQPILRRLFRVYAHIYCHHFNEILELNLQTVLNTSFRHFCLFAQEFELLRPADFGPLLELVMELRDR
As to the kind of experiment: Yeast proteome chip assay. It is filed as biochemical. To be noted: [γ-33P]ATP, chips in duplicate. In outline:
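GST-tagged yeast proteins (~4,400 strains) spotted on proteome microarrays, probed in duplicate with FHHDbf2-H6Mob1TM9 in DKB plus [γ-33P]ATP; kinase-dead Dbf2(N305A) and kinase-free buffer served as controls. Positives: 3 of 4 spots ≥2 SD above background, fourth ≥1.5 SD.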

Assay [2] concerns the target T1, FHHDbf2-H6Mob1TM9. Kind of assay: Kinase assays of immunoprecipitated TAP-tagged proteins. The assay is classed as biochemical. The note with it: protein on IgG sepharose beads, ~13 ng Dbf2, 2 μCi [γ-32P]ATP, 30 min, room temperature, SDS-PAGE, autoradiography. How it is done:
TAP-tagged strains were obtained for 22 of the 25 top candidates. TAP-tagged alleles for three of the genes (YJL108C, YBR285W, and YBR108W) were not available, and therefore these candidates were not subjected to further analysis. Asynchronous cultures of the 22 TAP-tagged strains were grown and the TAP-tagged proteins immunoprecipitated with IgG sepharose and analyzed by Western blotting (Figure 2A). Candidates were determined to be phosphorylated if a radioactive signal was detected at the molecular weight predicted for the tagged protein. […] The 17 TAP-tagged proteins that were expressed and purified were used in Dbf2-Mob1 kinase assays (Figure 2B). Of the 17, 10 were determined to be phosphorylated.
The TAP-tagged proteins were immunoprecipitated with IgG sepharose beads from asynchronous cultures, fractionated on SDS-PAGE and immunoblotted with anti-TAP. […] (B) The TAP-tagged proteins expressed in (A) were treated with ^FHHDbf2-^H6Mob1^TM9 in the presence of [γ-^32P]ATP, fractionated on SDS-PAGE and detected by autoradiography.
Yeast strains containing TAP-tagged genes (Open Biosystems) were grown to OD600 ~2.0 in 25 mL of YPD. […] Immunoprecipitated TAP-tagged proteins were analyzed by SDS-PAGE and detected by Western blotting using the primary antibody anti-TAP (Open Biosystems) followed by goat anti-rabbit horseradish peroxidase (HRP)-conjugate (Bio-Rad), and ECL. […]

In assay [3] the test system is kinase-inactive FHHDbf2(N305A)-H6Mob1TM9. Kind of assay: Kinase assays of immunoprecipitated TAP-tagged proteins with the kinase-inactive complex. It is filed as biochemical, Saccharomyces cerevisiae. The note with it: protein on IgG sepharose beads, ~13 ng Dbf2, 2 μCi [γ-32P]ATP, 30 min, room temperature, SDS-PAGE, autoradiography.
The mark [4] stands for this setting: Table 3, GST fusion proteins on proteome chip, computer analysis.
Where [5] appears, read: Table 4, the 25 proteins with highest signal relative to protein amount.

B1: YDR226W: GST fusion yeast protein on proteome chip (protein, UniProt P07170 3-222, looked up)
Adenylate kinase: SSESIRMVLIGPPGAGKGTQAPNLQERFHAAHLATGDMLRSQIAKGTQLGLEAKKIMDQGGLVSDDIMVNMIKDELTNNPACKNGFILDGFPRTIPQAEKLDQMLKEQGTPLEKAIELKVDDELLVARITGRLIHPASGRSYHKIFNPPKEDMKDDVTGEALVQRSDDNADALKKRLAAYHAQTEPIVDFYKKTGIWAGVDASQPPATVWADILNKLGKD
modifications: GST tag
notes: GST fusion yeast protein on proteome chip
As to B1, the “Slide Signal (after normalization)” value in assay [1] (setting [4]) and in assay [1] (setting [5]) was 3.1016 throughout. In assay [2], the “Phosphorylation of TAP-tagged protein by Dbf2-Mob1” value is given as “phosphorylated by Dbf2-Mob1”. For the same molecule, the “Phosphorylation of TAP-tagged protein by kinase-inactive Dbf2(N305A)-Mob1” value in assay [3] is “not its kinase inactive form”.

B2: YOR362C: GST fusion yeast protein on proteome chip (protein, UniProt P21242 2-288, looked up)
Probable proteasome subunit …: TSIGTGYDLSNSVFSPDGRNFQVEYAVKAVENGTTSIGIKCNDGVVFAVEKLITSKLLVPQKNVKIQVVDRHIGCVYSGLIPDGRHLVNRGREEAASFKKLYKTPIPIPAFADRLGQYVQAHTLYNSVRPFGVSTIFGGVDKNGAHLYMLEPSGSYWGYKGAATGKGRQSAKAELEKLVDHHPEGLSAREAVKQAAKIIYLAHEDNKEKDFELEISWCSLSETNGLHKFVKGDLLQEAIDFAQKEINGDDDEDEDDSDNVMSSDDENAPVATNANATTDQEGDIHLE
modifications: GST tag
notes: as for B1
Consider B2, for which the “Slide Signal (after normalization)” value in assay [1] (setting [4]) and in assay [1] (setting [5]) was 0.9895 each time. The “Phosphorylation of TAP-tagged protein by Dbf2-Mob1” value in assay [2] is “phosphorylated by Dbf2-Mob1”. Moreover, the “Phosphorylation of TAP-tagged protein by kinase-inactive Dbf2(N305A)-Mob1” value in assay [3] is “not its kinase inactive form”.

Source of the values: publication PMC1277818, “Substrate specificity analysis of protein kinase complex Dbf2-Mob1 by peptide library and proteome array screening” (BMC Biochemistry, 2005).
